# Laboratory results as given in patent US20240174727A1, “LONG-ACTING NATRIURETIC PEPTIDES AND USES THEREOF” (Eli Lilly and Company, priority 2022, published 2024).
# Where a chain is given by its changes, count along the chain named. Numbered stars: 1 amine (or outer) side, 2 acyl side, 3 side chain; on linkers, the order of the positions; unused ones are H or OH. Bridge positions count the residues as written; N and C are the ends. Square brackets hold non-standard residues; d marks the D form. Ends that are not written are not given here. * marks the point of attachment. thioacetal = thioacetal linkage between two cysteines (intrachain bond at the bracketed Cys); C20 diacid = O=C(O)CCCCCCCCCCCCCCCCCCC(=O)*; γGlu = O=C(O)[C@H](CCC(=O)[*:2])N[*:1]; 4Pal = N[C@@H](Cc1ccncc1)C(=O)O; βAla = NCCC(=O)O
# T1: human NPRA (human, UniProt P16066 33-1061)
# T1 sequence (looked up): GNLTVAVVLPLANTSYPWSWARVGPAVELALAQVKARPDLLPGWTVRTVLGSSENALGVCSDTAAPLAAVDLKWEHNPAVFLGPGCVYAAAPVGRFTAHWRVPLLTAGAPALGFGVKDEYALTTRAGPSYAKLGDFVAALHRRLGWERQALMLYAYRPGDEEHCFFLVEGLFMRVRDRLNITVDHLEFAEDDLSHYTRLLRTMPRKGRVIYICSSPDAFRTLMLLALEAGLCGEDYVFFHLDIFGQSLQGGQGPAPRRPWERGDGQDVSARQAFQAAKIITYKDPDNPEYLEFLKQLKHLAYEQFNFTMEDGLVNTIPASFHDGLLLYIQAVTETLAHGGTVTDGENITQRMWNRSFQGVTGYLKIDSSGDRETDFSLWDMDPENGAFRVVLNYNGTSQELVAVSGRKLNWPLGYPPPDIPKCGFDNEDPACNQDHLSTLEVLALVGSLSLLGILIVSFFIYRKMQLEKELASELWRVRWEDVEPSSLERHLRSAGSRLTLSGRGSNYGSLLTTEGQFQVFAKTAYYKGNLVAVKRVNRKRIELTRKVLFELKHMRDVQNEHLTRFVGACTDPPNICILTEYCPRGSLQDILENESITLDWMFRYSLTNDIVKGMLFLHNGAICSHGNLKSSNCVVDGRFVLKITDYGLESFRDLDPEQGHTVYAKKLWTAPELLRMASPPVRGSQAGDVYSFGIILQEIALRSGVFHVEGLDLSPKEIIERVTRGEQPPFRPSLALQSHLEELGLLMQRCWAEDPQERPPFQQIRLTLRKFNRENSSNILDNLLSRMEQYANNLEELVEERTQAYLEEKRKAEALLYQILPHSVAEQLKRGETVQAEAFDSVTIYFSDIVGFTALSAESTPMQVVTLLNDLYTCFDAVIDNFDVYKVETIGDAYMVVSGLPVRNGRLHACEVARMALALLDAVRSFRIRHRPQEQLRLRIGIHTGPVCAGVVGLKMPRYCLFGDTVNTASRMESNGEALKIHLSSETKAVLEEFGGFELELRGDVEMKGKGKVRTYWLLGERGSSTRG
# T2: rat NPRA (rat, UniProt P18910 29-1057)
# T2 sequence (looked up): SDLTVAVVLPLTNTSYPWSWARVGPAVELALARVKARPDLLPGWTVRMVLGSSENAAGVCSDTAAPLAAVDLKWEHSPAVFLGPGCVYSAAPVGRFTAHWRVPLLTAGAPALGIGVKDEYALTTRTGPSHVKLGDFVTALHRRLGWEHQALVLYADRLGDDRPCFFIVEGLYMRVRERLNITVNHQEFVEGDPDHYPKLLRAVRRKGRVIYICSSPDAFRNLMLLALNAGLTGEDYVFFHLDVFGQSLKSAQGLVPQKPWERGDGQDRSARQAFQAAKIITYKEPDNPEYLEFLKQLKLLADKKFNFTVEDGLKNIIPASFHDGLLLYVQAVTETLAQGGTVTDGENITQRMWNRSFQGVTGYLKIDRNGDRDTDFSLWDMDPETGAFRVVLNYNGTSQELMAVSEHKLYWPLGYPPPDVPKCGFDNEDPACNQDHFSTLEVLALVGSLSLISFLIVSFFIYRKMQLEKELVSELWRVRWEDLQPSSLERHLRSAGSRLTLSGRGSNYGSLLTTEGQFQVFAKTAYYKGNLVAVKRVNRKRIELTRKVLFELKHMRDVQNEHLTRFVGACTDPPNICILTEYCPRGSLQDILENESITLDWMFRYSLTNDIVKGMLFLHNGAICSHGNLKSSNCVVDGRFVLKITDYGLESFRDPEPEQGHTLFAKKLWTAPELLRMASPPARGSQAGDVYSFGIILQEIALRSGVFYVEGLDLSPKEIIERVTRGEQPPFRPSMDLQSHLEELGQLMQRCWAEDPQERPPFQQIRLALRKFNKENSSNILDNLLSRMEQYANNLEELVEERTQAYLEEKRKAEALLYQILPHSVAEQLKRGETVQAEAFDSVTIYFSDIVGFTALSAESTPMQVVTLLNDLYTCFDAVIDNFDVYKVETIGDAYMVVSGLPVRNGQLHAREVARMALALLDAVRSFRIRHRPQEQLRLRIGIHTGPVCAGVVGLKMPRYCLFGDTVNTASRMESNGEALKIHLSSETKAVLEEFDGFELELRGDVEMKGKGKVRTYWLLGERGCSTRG
# B1: Example 11 (peptide)
# peptide: XEKEKEKGSXRRSSCFGGRIDRIGAQSGLGCNSFRY
# modifications: HOOC-(CH2)18-CO-(γGlu)-EKEKEKGS-4Pal-RRSS[CFGGRIDRIGAQSGLGC]NSFRY-NH2; disulfide linkage between the bracketed Cys
# B2: Example 10 (peptide)
# peptide: {C20 diacid}-[γGlu]EKEKEKGSLRRSSCFGGRIDRIGA[4Pal]SGLGCNSFRY-NH2
# modifications: disulfide 15-31
# SMILES: CC[C@H](C)[C@@H]1NC(=O)[C@H](CCCNC(=N)N)NC(=O)[C@H](CC(=O)O)NC(=O)[C@H]([C@@H](C)CC)NC(=O)[C@H](CCCNC(=N)N)NC(=O)CNC(=O)CNC(=O)[C@H](Cc2ccccc2)NC(=O)[C@@H](NC(=O)[C@H](CO)NC(=O)[C@H](CO)NC(=O)[C@H](CCCNC(=N)N)NC(=O)[C@H](CCCNC(=N)N)NC(=O)[C@H](CC(C)C)NC(=O)[C@H](CO)NC(=O)CNC(=O)[C@H](CCCCN)NC(=O)[C@H](CCC(=O)O)NC(=O)[C@H](CCCCN)NC(=O)[C@H](CCC(=O)O)NC(=O)[C@H](CCCCN)NC(=O)[C@H](CCC(=O)O)NC(=O)CC[C@H](NC(=O)CCCCCCCCCCCCCCCCCCC(=O)O)C(=O)O)CSSC[C@@H](C(=O)N[C@@H](CC(N)=O)C(=O)N[C@@H](CO)C(=O)N[C@@H](Cc2ccccc2)C(=O)N[C@@H](CCCNC(=N)N)C(=O)N[C@@H](Cc2ccc(O)cc2)C(N)=O)NC(=O)CNC(=O)[C@H](CC(C)C)NC(=O)CNC(=O)[C@H](CO)NC(=O)[C@H](Cc2ccncc2)NC(=O)[C@H](C)NC(=O)CNC1=O
# B3: Example 89 (peptide)
# peptide: EKXRSSCFGKRIDRIGHQSGLGCPSFRHGGKSSGAPPPS
# modifications: HOOC-(CH2)18-CO-(γGlu)-EKEKEKG-(AEEA)6-EK-βAla-RSS[CFGKRIDRIGHQSGLGC]PSFRHGGKSSGAPPPS-NH2; thioacetal linkage between the bracketed Cys
# B4: Example 7 (peptide)
# peptide: B3 peptide with K10G, R11K, G30S, K31P
# modifications: HOOC-(CH2)18-CO-(γGlu)-EKEKEKG-PEG24-EK-βAla-RSS[CFGGKIDRIGHQSGLGC]PSFRHGSPSSGAPPPS-NH2; thioacetal linkage between the bracketed Cys
# B5: Example 98 (peptide)
# peptide: B3 peptide with K10G, Q18Y, G30S, K31P
# modifications: HOOC-(CH2)18-CO-(γGlu)-EKEKEKG-(AEEA)6-EK-βAla-RSS[CFGGRIDRIGHYSGLGC]PSFRHGSPSSGAPPPS-NH2; thioacetal linkage between the bracketed Cys
# B6: Example 6 (peptide)
# peptide: EKXRSSCFGGKIDRIGHYSGLGCPSFRHGSPSSGAPPPS
# modifications: HOOC-(CH2)18-CO-(γGlu)-EKEKEKG-PEG24-EK-βAla-RSS[CFGGKIDRIGHYSGLGC]PSFRHGSPSSGAPPPS-NH2; thioacetal linkage between the bracketed Cys
# B7: Example 9 (peptide)
# peptide: {C20 diacid}-[γGlu]EKEKEKGSLRRSSCFGGRIDRIGAQSGLGCNSFR[4Pal]-NH2
# modifications: disulfide 15-31
# SMILES: CC[C@H](C)[C@@H]1NC(=O)[C@H](CCCNC(=N)N)NC(=O)[C@H](CC(=O)O)NC(=O)[C@H]([C@@H](C)CC)NC(=O)[C@H](CCCNC(=N)N)NC(=O)CNC(=O)CNC(=O)[C@H](Cc2ccccc2)NC(=O)[C@@H](NC(=O)[C@H](CO)NC(=O)[C@H](CO)NC(=O)[C@H](CCCNC(=N)N)NC(=O)[C@H](CCCNC(=N)N)NC(=O)[C@H](CC(C)C)NC(=O)[C@H](CO)NC(=O)CNC(=O)[C@H](CCCCN)NC(=O)[C@H](CCC(=O)O)NC(=O)[C@H](CCCCN)NC(=O)[C@H](CCC(=O)O)NC(=O)[C@H](CCCCN)NC(=O)[C@H](CCC(=O)O)NC(=O)CC[C@H](NC(=O)CCCCCCCCCCCCCCCCCCC(=O)O)C(=O)O)CSSC[C@@H](C(=O)N[C@@H](CC(N)=O)C(=O)N[C@@H](CO)C(=O)N[C@@H](Cc2ccccc2)C(=O)N[C@@H](CCCNC(=N)N)C(=O)N[C@@H](Cc2ccncc2)C(N)=O)NC(=O)CNC(=O)[C@H](CC(C)C)NC(=O)CNC(=O)[C@H](CO)NC(=O)[C@H](CCC(N)=O)NC(=O)[C@H](C)NC(=O)CNC1=O
# B8: Example 91 (peptide)
# peptide: SXRRSSCFGGRIDRIGHYSGLGCPSFRHGGKSSGAPPPS
# modifications: HOOC-(CH2)18-CO-(γGlu)-EKEKEKG-(AEEA)8-S-4Pal-RRSS[CFGGRIDRIGHYSGLGC]PSFRHGGKSSGAPPPS-NH2; thioacetal linkage between the bracketed Cys
# B9: Example 96 (peptide)
# peptide: B8 peptide with G30S, K31P
# modifications: HOOC-(CH2)18-CO-(γGlu)-EKEKEKG-(AEEA)6-S-4Pal-RRSS[CFGGRIDRIGHYSGLGC]PSFRHGSPSSGAPPPS-NH2; thioacetal linkage between the bracketed Cys
# B10: Example 95 (peptide)
# peptide: B8 peptide
# modifications: HOOC-(CH2)18-CO-(γGlu)-EKEKEKG-PEG24-S-4Pal-RRSS[CFGGRIDRIGHYSGLGC]PSFRHGGKSSGAPPPS-NH2; thioacetal linkage between the bracketed Cys
# B11: Example 92 (peptide)
# peptide: B8 peptide
# modifications: HOOC-(CH2)18-CO-(γGlu)-EKEKEKG-(AEEA)6-S-4Pal-RRSS[CFGGRIDRIGHYSGLGC]PSFRHGGKSSGAPPPS-NH2; thioacetal linkage between the bracketed Cys
# How the values were obtained:
# human NPRA = molecular target: T1, human NPRA; assay: cell-based or functional assay
# rat NPRA = molecular target: T2, rat NPRA; assay: cell-based or functional assay
Binder,"cGMP Assay (EC50, pM) w/BSA (human NPRA)","cGMP Assay (EC50, pM) w/Casein (human NPRA)","cGMP Assay (EC50, pM) w/BSA (rat NPRA)","cGMP Assay (EC50, pM) w/Casein (rat NPRA)"
B1,24400 pM,1020 pM,24700 pM,242 pM
B2,64200 pM,1310 pM,88400 pM,501 pM
B3,10800 pM,806 pM,819000 pM,13800 pM
B4,69600 pM,5670 pM,1.17e+06 pM,184000 pM
B5,,1840 pM,,17900 pM
EK[βAla]RSSCFGKRIDRIGHQSGLGCPSFRHGGKSSGAPPPS-NH2 (bridge 7-23 via thioacetal; not fully specified (N-terminus)) [Example 90],19700 pM,452 pM,734000 pM,13200 pM
B6,33300 pM,1530 pM,596000 pM,30500 pM
B7,100000 pM,1870 pM,46700 pM,509 pM
B8,13900 pM,1000 pM,549000 pM,16200 pM
B9,12700 pM,720 pM,401000 pM,12200 pM
B10,7030 pM,771 pM,322000 pM,12300 pM
B11,10100 pM,772 pM,290000 pM,12400 pM
